The values below come from the DeepSol protein solubility set.

This data set is described as follows: soluble on expression in E. coli; label from the status in PepcDB or PDB records.
Take “MGHHHHHHSHMLAWHVLMGNQVIWKSRDVDLVQSAFEVLRTMLPVGCVRIIPYSSQYEEAYRCNFLGLSPHVQIPPHVLSSEFAVIVEVHAAARSTLHPVGCEDDQSLSKYEFVVTSGSPVAADRVGPTILNKIEAALTNQNLSVDVVDQCLVCLKEEWMNKVKVLFKFTKVDSRPKEDTQKLLSILGASEEDNVKLLKFWMTGLSKTYKSHLMSTVRSPTASESRN”: the “soluble on expression in E. coli” value is “not soluble”.
Under “VTLAAEPHPAPPQQPTVAWSEPDVDRRVEFWPTVAIRSALESGDIATWQRIAAALKRDPYGRTARQVEEVLEGIPATGIANAFWEVLDRARTHLDANERAEVARQVGLLLDRSGLQRQEFASRIGVTAQDLTAYLDGIVSPSASLMIRMRRLSDRFVRAKSVRAADS” stands “soluble”; under “DREELDKQLRHERERFRLLVDAVENYAIFLLDPDGLIQSWNVGAKQLTQYEESDILGEHVSTFHTEKQVADGIPEQLLQEAEECGKAIDRGLRVRKDGSTFWADVTVTALQENSDARGFAKVIKDIT”, “not soluble”.
The same measure for “MDKKQVTDLRSELLDSRFGAKSISTIAESKRFPLHEMRDDVAFQIINDELYLDGNARQNLATFCQTWDDENVHKLMDLSINKNWIDKEEYPQSAAIDLRCVNMVADLWHAPAPKNGQAVGTNTIGSSEACMLGGMAMKWRWRKRMEAAGKPTDKPNLVCGPVQICWHKFARYWDVELREIPMRPGQLFMDPKRMIEACDENTIGVVPTFGVTYTGNYEFPQPLHDALDKFQADTGIDIDMHIDAASGGFLAPFVAPDIVWDFRLPRVKSISASGHKFGLAPLGCGWVIWRDEEALPQELVFNVDYLGGQIGTFAINFSRPAGQVIAQYYEFLRLGREGYTKVQNASYQVAAYLADEIAKLGPYEFICTGRPDEGIPAVCFKLKDGEDPGYTLYDLSERLRLRGWQVPAFTLGGEATDIVVMRIMCRRGFEMDFAELLLEDYKASLKYLSDHPKLQGIAQQNSFKHT”: “soluble”.
Under “MGHHHHHHSHMHGPKPTVQEIVLELCPCNEIEPVDLVCHEQLGDSDDEIDEPDHAVNHHQHQLLARRDEQQRHTIQCTCCKCNNLLQLVVEASRENLRKLELLFMDSLNFVCPWCATETQ” stands “not soluble”; under “MGSDKIHHHHHHMVVIISAHNIATLEYQPMPKISDSGEPVEGVQAVALTLKILEALANARSTVGVTELSKQIGAGKARVYRHLQTLVTLGYALKDEESERYSTGPQLLRLSHTLSYRLDVVEAARLPARKLSDATGLTAVVARVEGDAIVVVHAEYSRADTMRSPRIGTTMQFHYTALGKIALAFGPAELRSRVLNEPLEQLTAYTITDRRDLMKKLEKIQELGWASSANEGMVGFNALAAPITDAHERLVGMICVVGSIKQLPATPPQNYLDALLSTADDISAYFGHVSRMPS”, “not soluble”.
As to “MDDLRIEYDAPNDVYFPGQAVTGKVIIQNREWIKARFLKICIHGGAHTHWSESRSTYRTNTRGERERFTENVNYNATINYLTGESIAWQSRDGTDRLPAGTNVFPFAFNLPINCAPSFEGCHGHIRYDVHVELDRPWKFNKKSRKCFSVIPVFDLNITPTAINPMVNTASKNTGLILKKGLVTITVNLPKRGYVAGEIMPITVNIDNGSKVAVSEVSAKMTQLSHFHASHGNMIGVTAHTHNRNDEKLVAESRRVADVPAKSRGQMVLSMKIPAIVPSFNCPIIAVDYCLTVKVSTQQIFGGGLKCEFPLIIGTIPIRQMNQAAPGAMPTMPSVSAPPYPVVAGASASQAVYPTAPSAPPASPGGEAPPSYEESVHGAGKVEDAEAFAPRYPVYNNLPQQQNSQLPPEYAPPLPAKSGF”, the “soluble on expression in E. coli” value is given as “not soluble”.
Regarding “MAFHWQSKVNVQHVGVDDMVLLPKLTEQSIVENLKKRLQANSIFTYIGPVLISVNPFKQMPYFTEKEMLLYQGAAQYENAPHIYALADNMYRNMLIDNESQCVIISGESGAGKTVNAKFIMNYISRISGGGQKVQHIKDVILQSNPLLEAFGNSATVRNWNSSRFGKYVEIVFSRGGEPIGGKLSNFLLEKSRVVHQNEGDRNFHVFYQLCAGADKNLRSTFGIGELQYYNYLNMSGVFKADDTDDGKEFESTLHAMKVVGVNDQDQLEVLRIVATVLHIGNITFTEENNFAAVSGKDYLEYPAFLLGLTSADIEAKLTGRKMESKWGTQKEEIDMKLNVEQASYTRDAWVKAIYARLFDYLVKKVNDAMNITSQSTSDNFSVGILDIYGFEIFNNNGFEQFCINFVNEKLQQIFIELTLKAEQEEYVREGIKWTEIDYFDNKIVCDLIETKRPPGIMSLLDDTCAQNHGQREGVDRQLLTTLSKSFAGHPHFGPGSDSFVIKHYAGDVTYNVDGFCDRNRDVLYPDLILLMQKSSRPFIQALFPENVAASAGKRPTTFSTKIRTQANTLVESLMKCSPHYVRCIKPNETKRPNDWEESRVKHQVEYLGLRENIRVRRAGFAYRRAFDKFAQRYAIVSPQTWPCFQGDQQRACEIICDSVHMEKNQYQMGKTKIFVKNPESLFLLEETRERKFDGYARVIQKAWRQFSARKQHIKQKEQAADLMYGKKERRRYSLNRNFVGDYIGLEHHPTLQSLVGKRQRVLFACTANKYDRKFRVTKLDLLLTVNHLTLIGKEKVKNGPEKGKIVEVIKRQFDLPQIKSIGLSPYQDDFVILYLGNDDYSSLLETPFKTEFCTALSKAYKERTNGTLHLDFRSSHVVSYKKMKFDFSDGKRTVQFGNDGTSSAEKTLKPNGKVLNVSIGTGLPNTTRPSTERPQGGYTPRRDQLRTSTRRTKQNNQSYGQNGQSQAMRAPVPAHGMNNNYNQTPAPVSTNHQYSQEPARIPVMGNVINQLNNMNLSGNGNSPAGRGPPPARGPKPPPPAKPKLNPVVIAVYPYEAQDVDELSFEAGAEIELMNKDASGWWQGKVNNRVGLFPGNYVKE”, the “soluble on expression in E. coli” value was “not soluble”.
Consider “MAHHHHHHMMSAAARKRRCQQARQREPAAPQQKGEASRHDDTAEPERKPLTGAVSPAINSAAEAPSATPPVLSSHFSLKPGLPTSPPLMHKRTATRCGSVDEDALFFQTYENVADMRFASLDEIAQSVVDLRQRVQQRMQHQRLLTDIEALHERHGSALLRSMPHVLNVLEAAAAVDDGAEGPSGRSGGGQFTMSPEQVYARMVRQIDEQRSGHEQHQRDPDNAEKVVGILHLRQLPVGRPIPPRIRQLRESAALAQVAASEEARRRSRLLPRESKDRSSSTTKRGVSVSAAVSIQFADPAAPLMASSTGGGRSSSLTTVMELRRWRPYLERRNRLSAALTRIFDATTLRAVYSYYRTCALLQRDAAVVRRLVPDRQQWSALPSIEELAVLDRRLEVMFEGRPSWDGRQGA”, for which the “soluble on expression in E. coli” value is reported as “not soluble”.
The same measure for “MGSDKIHHHHHHMQIVPLHSSHYPHIASVFHQAVRAAAGKGYTQAQCEAWSRGVRDRRYWRSRLGRSLVLVALNVDEVVGFIDCELEHPDKGYIGHLYVAPTHQGRGIGGKLLDALIRQAPALGIGSLTTDASLHSEPLFAAKGFSNVGRYFQQKSGQVLPGFAMTLPLPFYIDRMQGSDLASIARLFHEAVQGASEYYSEAERHAWSAALRDEATWQGKLAPSKVWVARKDSGIMGFINLLPKSIGEAEIDCLFTSPVLTRCGVATSLYWVLEQQARRDGVRRLSVEASYFARPFFQSRGFTELSRNEHPRHGQILVNFSMEKWLSRPEGG”: “not soluble”; for “MDLFPVLKELAQKTPSKILLIVLDGVGGLPLEPGGPTELEAAKTPNLDRLAEESALGLLTPVYPGLAPGSGPGHLALFGYDPFRYVVGRGALSALGLGADFREGDVALRGNFATLDPEGKVVDRRAGRPPTEENQRVIAKLKEAIPRIEDVEVLFYTESEHRFLVILRGEGLEDKVTDTDPQKTGLPPLKAKALDEASERTARLVNLLSERIREVLKDEPRMNGALFRGASKKPSFPRMQEVYKLTPAAIASYPMYKGLASLVGMEVLPVEGEGDALEGKLKALKENWGRYDFFYFHVKKTDAMGEDGNFHGKVEKVELFDALLPEILALGPDVLAITGDHSTPALLKAHSWHPVPLLLKAPYLRADEARRFTEREAQRGSLGHLRGVELMPLLLAHAGKLLKYGA”: “soluble”; for “EEHLSVMYERLRQELPKLFLQSHDYSLYSLDVEFINEILNIRTKGRTWYILSLTLCRFLAWNYFAHLRLEVLQLTRHPENWTLQARWRLVGLPVHLLFLRFYKRDKDEHYRTYDAYSTFYLNSSGLI”: “soluble”.
The same measure for “MGSDKIHHHHHHMDVRFINEQTIMIYFENKISEETYRNVTAMVRWIREKEILEIQDIVPSYRAVLIYFDEQAITSSKLIENLELNKFNEKNVHAVNQTNRIIKIPVQYGGTYGPDIEEVAKHNRITVEQVIEKHTSKPYLIYMLGFMPGFPYLGGLDEQLHTPRRNQPRLKIHAGSVGIANNQTGLYPSDSPGGWQIIGRTPLKVFSSEREPMSMYEAGEWIQFYAIDEQKFIQIERDISDGNFNVDDWVVIENVN”: “not soluble”; for “MGSSHHHHHHSSGLVPRGSHMETADLKSLAKRIYEAYLKNFNMNKVKARVILSGKASNNPPFVIHDMETLCMAEKTLVAKLVANGIQNKEAEVRIFHCCQCTSVETVTELTEFAKAIPGFANLDLNDQVTLLKYGVYEAIFAMLSSVMNKDGMLVAYGNGFITREFLKSLRKPFCDIMEPKFDFAMKFNALELDDSDISLFVAAIICCGDRPGLLNVGHIEKMQEGIVHVLRLHLQSNHPDDIFLFPKLLQKMADLRQLVTEHAQLVQIIKKTESDAALHPLLQEIYRDMY”: “soluble”.
The same measure for “MGSDKIHHHHHHMRKITLRSKLDGREIVFEENQNLFDIAREYQKYYRYKILAARVNNRIIELFRTPDRSGELEFLDLTDPDGLRIYQRGLVFLASLAVRKLNSEWRLKVLHSLGKGIYCEIYKGNELIVPDQNQVFAIKDKMRELVEKDLPIEKRTFYKDEAREILMKEGLVKTVNLFKYRKKRTVKLYHCDGFWAYFYGYLPPSTGRIDVFDVQPYNQGLVLVHPDPKTRELPVIHMPKLSQVFLEYARWLNVLELEYVSDLNDIIARGERHVADLMLLSEALHEKKISDIADEIAKDKRKRLILIAGPSSSGKTTFAKRLSLQLRVNGLKPVAISLDDYFVDREKTPRDENGNYDFDSIEALDIELFNRNLQDLLAGKEVVLPKFNFKTGKRMRGPTLKLEKDNIIIVEGIHGLNERLTASIPKEQKFKIYVSALTQLNIDDHNRVTTTDTRLIRRIVRDYKFRGHTAYDTLKMWPNVRKGEERNIFPFQEEADVMFNSALVYEIPVLRIFAEPLLVQVPEDVPEYSEALRLLKLLDFFLPITNIEDIPDKSILREFIGRSIFKY”: “not soluble”; for “MLEDLSQGKGSNHEKRKMESTAQITEEDSKLDEVVGLQKQICDLGTELTRQSSWWCIAHKDLQSQIDALIKENQEIRAELKTLKKQDAEATKACIGSPTPARASNTLPVYIKIEGTDSERTTSWDERDELSGSPPNRSTMATGGTDSQDEMLSFTSVDEKVIHMSSKFLQRSLGRMSPEPLSDSTFLDTESLADIWSSNPETSDGELLLHAQASRVIPCFSPNALWVQNIPTKSRAPKEIQQTSDTTKTDETKEKQHPNGKVERMLSDGRTIITFPNGTRKEISADKKTTLIRFFNGDMKKIKSNQKVIYYYADAQTMHTTYPDGVEVVQFPNKWTEKFYPDGSKETVFPDGTVKRLKDGCEETVFPDGTFVTVKRNGDKTIMFSNGEKEIHTARFKRKEFPDGTTKTVYCNGCQETKYASGRVRVKDEKGTVILDWK”: “not soluble”.
